For test [1], the target named is full-length uPA (human urokinase plasminogen activator) (Homo sapiens, UniProt P00749, biotin (biotinylated antigen on streptavidin biosensors)). Nature of the test: BLI. (In general: Biolayer interferometry detects binding as a change in optical thickness at a sensor tip.)
The target of test [2] is human uPA (form not stated) (human, UniProt P00749). Briefly: ELISA. A general note: An ELISA detects its analyte on a solid surface through an enzyme-linked reagent.

B1: AB2 Fab (Fab, V domains shown)
VH: QLTQSGGGLVKPGRSLRLSCTASGFTFGDYAMSWVRQAPGKGLEWVGFVRSESAGATTEYAASVKGRFTISRDDSKSIAYLQMNALKTEDTAVYYCIRGANWNWGQGTLVTVSS
VL: EIVLTQSPLSLPVTPGEPASISCRSSQLMNRNGNNFLDWYLQKPGQSPQLLIYLGSNRAPGVPDRFSGSGSGTDFTLKISRVEAEDVGVYYCMARVEAPYSFGQGTKLEIR
For the molecule B1, the binding result in test [1] and in test [2] was “binds” in each case.

Values taken from article PMC7770097 (Biochimica et biophysica acta. Proteins and proteomics, 2020).
